This note sets out measurements from article PMC12120770, “Unveiling Structural Heterogeneity and Evolutionary Adaptations of Heteromultimeric Bacterioferritin Nanocages” (Advanced Science, 2025).

Data set [1] concerns the molecule itself. Description: native gel or EMSA; purified PaBfrB on 6% native PAGE, Tris-glycine pH 8.3, 4 °C.
Data set [2] concerns the molecule itself. In words: cryo-EM structure; single-particle cryo-EM of purified SoBfr12 (1.7 mg mL^-1), subunits co-expressed in E. coli; refined with C1 symmetry, 2.62 Å.

B1: PaBfrB, Pseudomonas aeruginosa homo-bacterioferritin subunit (natural protein)
chain: not shown
notes: also called homo-Bfr
On to B1, for which the binding result in data set [1] was “binds”.

B2: SoBfr1, heme-free subunit of the Shewanella oneidensis hetero-bacterioferritin SoBfr12 (natural protein)
chain: MKGDKDVIDALNRLLTGELSAMDQYFVHAHMYEDWGLNELYERIAHESDDEKGHAAKLVQRILFLEGVPNVAAREALNIGSNVEEMLRNDLAYEYKVADDLRKVIALCEQKKDYQTREILEVLLDDTESDHMYWLEKQLGLIDRIGLANYLQTKM
notes: SoBfr1, heme-free bacterioferritin subunit of Shewanella oneidensis, amplified from genomic DNA together with SoBfr2; Expressed from one DNA fragment encoding SoBfr2 and SoBfr1 with a Strep-tag II; not shown: Strep-tag II, C-terminal, kept
With B2, the stoichiometry N (usually the number of molecules, sites or subunits per partner or assembly) in data set [2] came out at 2.

B3: SoBfr2, heme-binding subunit of the Shewanella oneidensis hetero-bacterioferritin SoBfr12 (natural protein)
chain: MKGHPKVVGQLNRVLTCELTAINQYFLHARMFKHWGLEKLNHVEYKKSIEDMKHADKLIERVLFLEGLPNLQQLEKLRIGEHAQEMLDCDLAMVQEQLTLLRDAITLCEAEQDYVSRDLLEDILEDEEEHLDWLESQRELIGLTGIQNYLQSQISES
Take B3: the “stoichiometry N” value in data set [2] came to 2.
